{"source": "patent US20250388666A1", "about": "(BRIGHAM AND WOMEN S HOSPITAL, published 2025)", "binders": {"B1": {"name": "chimeric parental antibody VH0/Vκ0 (antibody, IgG4, V domains shown)", "VH": "EVQLVESGGGFVKPGGSLKLSCAASGFSFSDYYLYWVRQTPEKRLEWVATISVGGGNTSYPDSVKGRFTISRDNAKNNLYLQMSSLKSEDTAMYYCTRGLYYGPAWFAYWGQGTLVTVSA", "VL": "not shown", "notes": "IgG4 (S241P), kappa; also called Chimera; chimeric antibody"}}, "biological_target": "T1, human GST-CEACAM1 (human, UniProt P13688 35-141, limits assumed)", "T1 construct": "printed both as GST-CEACAM1 and CEACAM1-GST; also called human CEACAM1-GST protein; hCEACAM1-GST; not shown: GST tag", "T1 sequence": "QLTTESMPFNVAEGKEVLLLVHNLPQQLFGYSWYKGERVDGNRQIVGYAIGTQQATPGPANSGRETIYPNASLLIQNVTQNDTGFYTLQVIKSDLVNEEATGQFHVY", "test": "competition ELISA vs murine parent antibody", "outline": "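Competition ELISA on plates coated overnight at 4° C with 1 μg/ml GST-CEACAM1, blocked with 2% BSA/PBS. Each antibody variant competed against the murine parental antibody for antigen binding, benchmarked against the chimeric VH0/Vκ0 antibody run on every plate.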"}
{"binder": "B1", "values": [{"measurement": "average relative IC50 (normalized to chimeric antibody)", "result": 1, "unit": "ratio"}]}
